Source: patent US20230076527A1, “TREATMENT OF PAROXYSMAL NOCTURNAL HEMOGLOBINURIA” (Apellis Pharmaceuticals, Inc., priority 2020, published 2023)

What was measured:
PNH Type II + III RBCs = assay: PEGASUS pharmacodynamics: C3 loading and clone size of PNH red blood cells; assay type: in vivo, human; settings: week 16 versus baseline
Source text: FIGS. 9B and 9C includes descriptive analysis of observed values, based only on those subjects who had both baseline and week 16 data.

patients with PNH [1] = assay: PEGASUS post hoc hematologic response categorization; assay type: in vivo, human; settings: 16 weeks
Source text: Complete response: no transfusions required, stable Hb in the normal range, and no evidence of hemolysis (i.e., LDH ≤1.5× upper limit of normal [ULN], ARC ≤150,000 /µL). Major response: no transfusion, normal Hb, but with evidence of hemolysis (LDH >1.5×ULN and/or ARC >150,000 /µL). Good response: no transfusion, but with chronic mild anemia or evidence of hemolysis. Partial response: chronic moderate anemia and/or occasional transfusions (<3 units/6 months). Minor response: regular transfusions required (3-6 units/6 months). No response: regular and frequent transfusions required (>6 units/6 months).

patients with PNH [2] = assay: PEGASUS 48-week efficacy results (open-label period); assay type: in vivo, human
Description: Day 1 to Week 16 was defined as the Randomized Controlled Period, over which endpoints were assessed. After completion of the Randomized Controlled Period (the end of Week 16), all subjects continue into a 32-week Open-Label Study Drug Period in which all subjects receive twice-weekly doses of Study Drug (1,080 mg). During this period, subjects return to the clinical site on Weeks 17, 18, 20, 22 and 24 and every 4 weeks, thereafter, until Week 48 for efficacy and safety assessments.

[3] = system: patients with PNH previously treated with eculizumab; assay: Matching-adjusted indirect comparison of pegcetacoplan (PEGASUS) versus ravulizumab (302 study); assay type: in vivo, human; settings: PEGASUS Week 16 vs 302 study Week 26, after matching
Source text: Both studies share similar eligibility criteria. However, PEGASUS also required patients to have hemoglobin <10.5 g/dL and absolute reticulocyte count >1.0x the upper limit of normal; these criteria were not applicable in the 302 study. To adjust for cross-study differences in baseline characteristics, propensity score weighting was utilized to balance baseline demographic and clinical characteristics. Outcomes assessed included: transfusion avoidance, total number of units of packed red blood cells (PRBCs) transfused, hemoglobin stabilization, and change in Functional Assessment of Chronic Illness Therapy (FACIT)-Fatigue score. Outcomes were assessed from PEGASUS at Week 16 and from the 302 study at Week 26. Unadjusted mean and least squares mean change in FACIT-Fatigue score were compared for PEGASUS and the 302 study, respectively. Weighted Wald tests and 95% confidence intervals (CIs) were computed for comparisons of categorical and continuous outcomes (i.e., chi square and z tests, respectively).

patients with PNH [4] = assay: PEGASUS 48-week safety; settings: 48-week study
patients with PNH [5] = assay: PEGASUS safety, 16-week randomized controlled period
Description: Pharmacokinetics and pharmacodynamics were also assessed, including change from baseline in percentage of PNH Type II + III RBCs at week 16, and change from baseline in percentage of PNH Type II + III RBCs opsonized with C3 at week 16. Incidence and severity of treatment-emergent adverse events (TEAEs), incidence of thromboembolic events, changes from baseline in laboratory parameters, and changes from baseline in electrocardiogram (ECG) parameters were also assessed.
The primary endpoint was assessed on ITT set (included all subjects who were randomized), and change from Baseline to Week 16 in Hb level was measured. […] Safety Analysis was conducted in the safety set (which included all subjects who were randomized and received at least 1 dose of monotherapy Study Drug).
Subjects were divided into various sets. The Run-in Set included all subjects who received at least one dose of APL-2. The Intent-to-Treat (ITT) Set included all subjects who were randomized. The analyses using this set was based upon the randomized treatment group allocated. The Safety Set included all subjects who were randomized and received at least 1 dose of monotherapy Study Drug. This set was used for safety analyses. The analyses using this set were based upon the actual treatment received. The Modified ITT (mITT) Set included all subjects in the ITT set who received at least one dose of monotherapy beyond their Week 4 after randomization in the Randomized Controlled Period. The analyses using this set were based upon the randomized treatment group allocated. […] Subjects were required to receive their randomized treatment to be included in the set and so analyses using this set were by default based upon the actual treatment group allocated. The Completer Set consisted of all subjects in the ITT set who completed the Week 16 efficacy assessment for the study. The analyses using this set were based upon the randomized treatment group allocated.

[6] = 16-week randomized, controlled treatment period

Substance: Poly(oxy-1,2-ethanediyl), α-hydro-ω-hydroxy-, 15,15ʹ -diester with N-acetyl-L-isoleucyl-L-cysteinyl-L-valyl-1-methyl-L-tryptophyl-L-glutaminyl-L-α-aspartyl-L-tryptophylglycyl-L-alanyl-L-histidyl-L-arginyl-L-cysteinyl-L-threonyl-2-[2-(2-aminoethoxy)ethoxy]acetyl-N^6-carboxy-L-lysinamide cyclic (2-->12)-(disulfide) [pegcetacoplan]
- C3 loading on Type III RBCs (PNH Type II + III RBCs): decreased
- PNH clone size (Type II + III) (PNH Type II + III RBCs): increased
- complete hematologic responses (patients with PNH [1]; ITT): 39%
- good hematologic responses (patients with PNH [1]; ITT): 31.7%
- minor hematologic responses (patients with PNH [1]; ITT): 4.9%
- no hematologic response (patients with PNH [1]; ITT): 0%
- partial hematologic responses (patients with PNH [1]; ITT): 14.6%
- patients achieving at least a good hematological response (patients with PNH [1]; 29/41 pegcetacoplan, 2/39 eculizumab): 70.7%
- hemoglobin, mean improvement from baseline (patients with PNH [2]; Week 48): 2.7 g/dL
- patients who remained transfusion free (patients with PNH [2]; throughout the 48-week study): 73%
- hemoglobin, mean increase from baseline as stated in Example 3 (patients with PNH [2]; week 16): 2.7 g/dL
- comparative effectiveness versus ravulizumab (MAIC, anchored on eculizumab) [3]: improvement in transfusion avoidance, hemoglobin stabilization, and fatigue, and a reduction in the total number of units of PRBCs transfused
- cases of meningitis (patients with PNH [4]): No cases
- diarrhea (patients with PNH [4]): 21%
- discontinuations due to hemolysis (patients with PNH [4]): five
- hemolysis (adverse event) (patients with PNH [4]): 24%
- injection site reactions (patients with PNH [4]): 36%
- patients who experienced a serious adverse event (patients with PNH [4]; 24 of 80 pegcetacoplan monotherapy-treated patients): 30%
- deaths (patients with PNH [4]; due to COVID-19, unrelated to study treatment): One death
- SAEs assessed to be possibly related to study treatment (patients with PNH [4]; five of the SAEs): 6%
- patients who discontinued due to adverse events (patients with PNH [4]; twelve out of 80 patients): 15%
- LDH increase in subjects discontinuing due to hemolysis (patients with PNH [5]; 3 subjects of the pegcetacoplan group): 3-11 × ULN
- hemolysis (adverse event) (patients with PNH [5]; 16-week period, four patients pegcetacoplan, nine patients eculizumab): 9.8%
- patients who experienced a serious adverse event (patients with PNH [5]; 16-week period, seven of 41 pegcetacoplan, 6 of 39 eculizumab): 17.1%
- Abdominal Pain (adverse event) (patients with PNH [5]; 16-week randomized period): 5 (12.2) n(%)
- Any TEAE (patients with PNH [5]; 16-week randomized period): 36 (87.8) n(%)
- Back Pain (adverse event) (patients with PNH [5]; 16-week randomized period): 3 (7.3) n(%)
- Diarrhea (adverse event) (patients with PNH [5]; 16-week randomized period): 9 (22.0) n(%)
- Discontinuations due to AE (patients with PNH [5]; 16-week randomized period): 3 (7.3) n(%)
- Dizziness (adverse event) (patients with PNH [5]; 16-week randomized period): 1 (2.4) n(%)
- Headache (adverse event) (patients with PNH [5]; 16-week randomized period): 3 (7.3) n(%)
- Meningitis (patients with PNH [5]; 16-week randomized period): 0 n(%)
- Serious AE (patients with PNH [5]; 16-week randomized period): 7 (17.1) n(%)
- cases of meningitis (patients with PNH [5]; 16-week randomized period): No cases
- deaths (patients with PNH [5]; 16-week randomized period): no deaths
- fatigue (adverse event) (patients with PNH [5]; 16-week randomized period): 2 (4.9) n(%)
- hemolysis (adverse event) (patients with PNH [5]; 16-week randomized period): 4 (9.8) n(%)
- injection site reactions (patients with PNH [5]; 16-week randomized period): 15 (35.6) n(%)
- tolerability (patients with PNH [5]; 16-week randomized period): generally well tolerated
- diarrhea (patients with PNH [5]; [6]): 22.0%
- fatigue (adverse event) (patients with PNH [5]; [6]): 4.9%
- headache (patients with PNH [5]; [6]): 7.3%
- injection site reactions (patients with PNH [5]; [6]): 36.6%
- Adverse Events as primary reason for withdrawal from study treatment (all reported as hemolysis) (patients with PNH [5]; through week 16): 3 (7.3) n (%)
